# Source: patent US20260209362A1 (VIB VZW, published 2026)
# T1: human IL-12Rβ2 (human, UniProt Q99665 24-862)
# T1 construct: Expressed on HEK293T cells transiently transfected with a pcDNA3 plasmid (Genscript clone OHu21785); also called hIL-12RB2; IL-12 receptor β2 subunit
# T1 sequence: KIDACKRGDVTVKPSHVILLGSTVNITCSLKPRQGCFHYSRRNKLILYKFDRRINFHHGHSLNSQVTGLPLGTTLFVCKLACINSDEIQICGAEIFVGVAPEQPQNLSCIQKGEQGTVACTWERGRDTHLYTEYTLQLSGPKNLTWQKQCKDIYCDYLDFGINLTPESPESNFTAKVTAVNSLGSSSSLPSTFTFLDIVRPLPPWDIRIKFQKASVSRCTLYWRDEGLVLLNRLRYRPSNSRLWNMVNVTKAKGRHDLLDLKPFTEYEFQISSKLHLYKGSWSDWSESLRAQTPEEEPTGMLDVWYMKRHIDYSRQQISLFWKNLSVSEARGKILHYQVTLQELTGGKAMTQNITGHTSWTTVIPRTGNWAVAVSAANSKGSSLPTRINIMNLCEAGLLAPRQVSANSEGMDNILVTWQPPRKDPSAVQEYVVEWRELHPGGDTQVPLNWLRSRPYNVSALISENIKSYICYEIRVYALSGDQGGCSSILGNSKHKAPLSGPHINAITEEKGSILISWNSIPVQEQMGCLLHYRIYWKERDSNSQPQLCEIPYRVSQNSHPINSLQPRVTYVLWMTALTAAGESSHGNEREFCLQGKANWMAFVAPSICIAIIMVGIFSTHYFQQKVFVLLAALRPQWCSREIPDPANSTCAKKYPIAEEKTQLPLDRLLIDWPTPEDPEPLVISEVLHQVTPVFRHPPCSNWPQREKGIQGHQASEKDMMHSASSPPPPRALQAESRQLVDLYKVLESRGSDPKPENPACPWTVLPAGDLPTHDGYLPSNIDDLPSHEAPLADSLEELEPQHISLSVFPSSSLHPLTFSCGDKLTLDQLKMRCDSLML
# Target: T1, human IL-12Rβ2
# Assay: flow cytometry, P.E. on transfected HEK293T cells
% cells bound [%],dMFI,Binder
44.5,1080,"anti-IL-12Rβ2 VHH clone 3CRHS1 (VHH, not shown: small tags and cut ends, periplasmic extract) VHH: QVQLQESGGGSVQPGGSLRLSCAASGFTFSTSGMHWFRQAPGKGLEWVSSIGIIVDSSYYASSVKGRFTISRDNAKNTLYLQMNSLKSEDTAVYYCSKDPTGSSRGQGTQVTVSS"
50.5,1480,"anti-IL-12Rβ2 VHH clone 3CRHS128 (VHH, not shown: small tags and cut ends, periplasmic extract) VHH: QVQLQESGGGLVQPGGSLRLSCAASGFTFSTSGMHWFRQAPGKGLEWVSSIGATVDNSYYASSVKGRFTISRDNAKNTLYLLMNSLKSEDTAVYYCSKDPTGSSRGQGTQVTVSS"
41.7,864,"anti-IL-12Rβ2 VHH clone 3CRH14 (VHH, not shown: small tags and cut ends, periplasmic extract) VHH: QVQLQESGGGLVQPGGSLRLSCAASGFTFSTSGMHWFRQAPGKGLEWVSSIGIIVDSSYYADSVKGRFTISRDNAKNTLFLQMNSLKSEDTAVYYCSKDPTGSSRGQGTQVTVSS"
46.5,1260,"anti-IL-12Rβ2 VHH clone 3CRHS109 (VHH, not shown: small tags and cut ends, periplasmic extract) VHH: QVQLQESGGGLVQPGGSLRLSCAASGFTFSTSGMHWFRQAPGKGLEWVSSIGIIVDSSYYASSVKGRFTISRDNAKNTLYLHMNSLKSEDTAVYYCSKDVTGSSRGQGTQVTVSS"
45.5,1160,"anti-IL-12Rβ2 VHH clone 3CRH43 (VHH, not shown: small tags and cut ends, periplasmic extract) VHH: QVQLQESGGGSVQPGGSLRLSCAASGFTFSTSGMHWFRQAPGKGLEWVSSIGIIVDSSYYASSVKGRFTISRDNAKNIVYLQMNSLKSEDTAVYYCSKDPTGSSRGQGTQVTVSS"
37.6,742,"anti-IL-12Rβ2 VHH clone 3CRH45 (VHH, not shown: small tags and cut ends, periplasmic extract) VHH: QVQLQESGGGLVQPGGSLRLSCAASGFTFSTFGMHWFRQAPGKGLEWVSSIGIIDDNSYYASSVKGRFTISRDNAKNTLYLQMNSLKSEDTAVYYCSKDTTGSSRGQGTQVTVSS"
40.1,809,"anti-IL-12Rβ2 VHH clone 2CRH80 (VHH, not shown: small tags and cut ends, periplasmic extract) VHH: QVQLQESGGGLVQPGGSLRLSCAASGFTFSTSGMHWFRQAPGKGLEWVSSIGIIVGSSYYASSVKGRFTISRDNAKNTLYLHMNSLKSEDTAVYYCSKDVTGSSRGQGTQVTVSS"
44.8,1120,"anti-IL-12Rβ2 VHH clone 2CRH33 (VHH, not shown: small tags and cut ends, periplasmic extract; also called 20363) VHH: QVQLQESGGGSVQPGWSLRLTCAASGFTFSTSGMHWFRQAPGKGLEWVSSISSGGGDTYYTDSVKGRITISRDNAKNTLYLQLNDLKSEDTAVYYCSKDPSGATRGQGTQVTVSS"
45.3,1100,"anti-IL-12Rβ2 VHH clone 2CRH60 (VHH, not shown: small tags and cut ends, periplasmic extract) VHH: QVQLQESGGGSVQPGGSLRLTCAASGFTFSTSGMHWFRQAPGKGLEWVSSISSGGGDTYYTDSVKGRITISRDNAKNTLYLQLNDLKSEDTAVYYCSKDPSGATRGQGTQVTVSS"
42.1,1040,"anti-IL-12Rβ2 VHH clone 3CRHS9 (VHH, not shown: small tags and cut ends, periplasmic extract) VHH: QVQLQESGGGLVQPGGSLRLSCTASGSIVSIYNMDWYRQAPGNEREWVASITSSGDPYYDGSAKGRFTISRDNAKMTVYLQMNSLKPEDTAVYYCKVPTEKGNYWGQGTQVTVSS"
41.7,918,"anti-IL-12Rβ2 VHH clone 3CRH18 (VHH, not shown: small tags and cut ends, periplasmic extract) VHH: QVQLQESGGGLVQPGGSLRLSCTASGNIVSIYNMDWYRQAPGNQREWVASITSSGDPYYDGSAKGRFTISRDNAKMTVYLQMNSLRPEDTAVYYCKVPTEKGNYWGQGTQVTVSS"
38.2,787,"anti-IL-12Rβ2 VHH clone 3CRH68 (VHH, not shown: small tags and cut ends, periplasmic extract) VHH: QVQLQESGGGLVQPGGSLRLSCTASGSILSIYNMDWYRQVPGNQREWVASITPSGDPYYDGSVKGRFTISRDNAKMMVYLQMNSLKPEDTAVYYCKVPTEKGNYWGQGTQVTVSS"
47.2,1320,"anti-IL-12Rβ2 VHH clone 3CRHS3 (VHH, not shown: small tags and cut ends, periplasmic extract) VHH: QVQLQESGGGLVQPGGSLRLSCTASGSIFSIYNMDWYRQAPGNQREWVASITSSGDPYYDASVKGRFTISRDSAKMTVYLQMNSLKPEDTAVYYCKLPTEKGNYWGQGTQVTVSS"
40.5,961,"anti-IL-12Rβ2 VHH clone 3CRHS55 (VHH, not shown: small tags and cut ends, periplasmic extract) VHH: QVQLQESGGGLVQAGGSLNLSCTASGSIISIYNMDWYRQAPGNQREWVASITSNGDSYYDGSAKGRFTISRDNAKMTVYLQMNSLKPEDTAVYYCKVPTENGNYWGQGTQVTVSS"
38.9,812,"anti-IL-12Rβ2 VHH clone 3CRH27 (VHH, not shown: small tags and cut ends, periplasmic extract) VHH: QVQLQESGGGLVQAGGSLRLSCTASGSIVSIYNMDWYRQAPGNEREWVASITSSGDPYYDGSAKGRFTISRDNAKMTVYLQMNSLKPEDTAVYYCKVPTEKGNYWGQGTQVTVSS"
42,1030,"anti-IL-12Rβ2 VHH clone 3CRHS148 (VHH, not shown: small tags and cut ends, periplasmic extract) VHH: QVQLQESGGGLVQPGGSLRLSCIASGSIFSIYNMDWYRQAPGNQREWVASITPSGDPYYDDSAKGRFTISRDNAKMTVYLQMNSLKPEDTAVYYCKVPTEKGNYWGQGTQVTVSS"
41.5,970,"anti-IL-12Rβ2 VHH clone 3CRHS54 (VHH, not shown: small tags and cut ends, periplasmic extract) VHH: QVQLQESGGGLVQPGGSLRLSCTASGSIVSIYNMDWYRQAPGNEREWVASITSSGDPYYDGSAKGRFTISRDNAKMTVYLQMNSLEPEDTAVYFCKVPTEKGNYWGQGTQVTVSS"
43.2,1130,"anti-IL-12Rβ2 VHH clone 3CRHS100 (VHH, not shown: small tags and cut ends, periplasmic extract) VHH: QVQLQESGGGLVQPGGSLRLSCTASGSIFSIYNMDWYRQAPGNQREWVASITPSGDPYYDDSAKGRFTISRDNAKMTVYLQMNSLKPEDTAVYYCKVPTEKGNYWGQGTQVTVSS"
32.5,583,"anti-IL-12Rβ2 VHH clone 3CRH17 (VHH, not shown: small tags and cut ends, periplasmic extract) VHH: QVQLQESGGGLVQAGGSLVLSCAASGSAALIFLMSWYRQAPGKQRELVAEVSRYGSTTYADSVEGRFTISRDNAKNIVDLQMNSLKPEDTAVYYCKADQYYGDSLRSSWGRGTQVTVSS"
44.5,1150,"anti-IL-12Rβ2 VHH clone 3CRHS2 (VHH, not shown: small tags and cut ends, periplasmic extract) VHH: QVQLQESGGGLVQLGGSLTLSCAASGSAALIFLMSWYRQAPGKQRELVAEVSRYGSTTYADSVEGRFTISRDNAKNIVDLQMNSLKPEDTAVYYCKADQYYGDSLRSSWGRGTQVTVSS"
30.8,595,"anti-IL-12Rβ2 VHH clone 2CRH10 (VHH, not shown: small tags and cut ends, periplasmic extract; also called 20362) VHH: QVQLQESGGGLVQAGGSLVLSCAASGSAALIFLMSWYRQAPGKQRELVAEVSRGGSTTYADSVEGRFHISRDNAKNIVDLQMNSLKPEDTAVYYCKADQNYGDSLRSSWGRGTQVTVSS"
35.3,686,"anti-IL-12Rβ2 VHH clone 2CRH53 (VHH, not shown: small tags and cut ends, periplasmic extract) VHH: QVQLQESGGGLVQAGGSLVLSCAASGSAALIFLMSWYRQAPGKQRELVAEVSRYGSTTYADSVEGRFTISRDNAKDIVDLQMNSLKPEDTAVYYCKADQYYGDSLRSSWGRGTQVTVSS"
31.8,537,"anti-IL-12Rβ2 VHH clone 3CRH38 (VHH, not shown: small tags and cut ends, periplasmic extract) VHH: QVQLQESGGGLVQAGGSLVLSCAASGSAALIFLMSWYRQAPGKQRELVAEVSRGGSTTYADSVEGRFTISRDNAKNIVDLQMNSLKPEDTAVYYCKADQNYGDSLRSSWGRGTQVTVSS"
35.1,645,"anti-IL-12Rβ2 VHH clone 3CRH67 (VHH, not shown: small tags and cut ends, periplasmic extract) VHH: QVQLQESGGGLVQAGGSLVLSCAASGSAALIFLMSWYRQAPGKQRELVAEVSRYGSTTYADSVEGRFTISRDNAKNIVDLQMNSLKPEDTAAYYCKADQYYGDSLRSSWGRGTQVTVSS"
36.7,707,"anti-IL-12Rβ2 VHH clone 2CRH73 (VHH, not shown: small tags and cut ends, periplasmic extract) VHH: QVQLQESGGGLVQAGGSLRLTCTASGSAALIFLMSWYRQAPGKQRELVAEVSRRGSTTYADSVEGRFTISRDNAKNIVDLQMNSLKPEDTAVYYCKADQYYGDSLRSSWGRGTQVTVSS"
39.5,835,"anti-IL-12Rβ2 VHH clone 3CRH5 (VHH, not shown: small tags and cut ends, periplasmic extract) VHH: QVQLQESGGGLVQAGGSLVLSCAASGSAALIFLMSWYRQAPGKQRELVAEVSRGGSTTYADSVEGRFTISRDNAKNIVDLQMNSLKPEDTAVYYCKADQNYGDSLRSSWGQGTQVTVSS"
33.3,625,"anti-IL-12Rβ2 VHH clone 3CRHS184 (VHH, not shown: small tags and cut ends, periplasmic extract) VHH: QVQLQESGGGLVQAGGSLVLSCAASGSAALIFLMSWYRQAPGKQRELVAEVSRYGSTTYADSVEGRFTISRDNAKNIVDLQMNSLKPEDTAVYYCKADQYYGDSLRSSWGRGTQLTVSS"
